# Test results reported in PMC11098746.
# Values joined by “and” are separate entries in the source; they are usually repeats but may differ in a detail not shown here. Identical values can stand only once.
# Tests used:
# [1] = biological target: Pf34 bait (P. falciparum Pf34 ectodomain, human Fc-tagged dimeric bait) (P. falciparum)
# [2] = biological target: Pf34 bait (P. falciparum Pf34 ectodomain, human Fc-tagged dimeric bait) (P. falciparum); assay: SPR
# [3] = biological target: Pf34 bait (Pf34 ectodomain with CD4d3+4, human Fc and C-tag) (Plasmodium falciparum); assay: SPR
# [4] = biological target: Izumo (Mus musculus) (UniProt Q9D9J7); conditions: cited from earlier work
# [5] = biological target: PfRON6 C-terminal bait (PfRON6 residues 537-950 with CD4d3+4, human Fc and C-tag) (Plasmodium falciparum); assay: SPR
# Izumo (Mus musculus), sequence (Q9D9J7 22-319): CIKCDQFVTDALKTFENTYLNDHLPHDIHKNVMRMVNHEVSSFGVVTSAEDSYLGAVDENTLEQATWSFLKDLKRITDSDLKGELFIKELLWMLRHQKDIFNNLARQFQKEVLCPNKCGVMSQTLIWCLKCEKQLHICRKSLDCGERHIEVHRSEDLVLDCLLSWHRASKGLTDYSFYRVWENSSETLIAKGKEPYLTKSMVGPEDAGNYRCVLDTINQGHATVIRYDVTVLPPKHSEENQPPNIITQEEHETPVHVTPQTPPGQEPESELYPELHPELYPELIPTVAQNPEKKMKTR
# Juno, sequence (Q9EQF4 20-222): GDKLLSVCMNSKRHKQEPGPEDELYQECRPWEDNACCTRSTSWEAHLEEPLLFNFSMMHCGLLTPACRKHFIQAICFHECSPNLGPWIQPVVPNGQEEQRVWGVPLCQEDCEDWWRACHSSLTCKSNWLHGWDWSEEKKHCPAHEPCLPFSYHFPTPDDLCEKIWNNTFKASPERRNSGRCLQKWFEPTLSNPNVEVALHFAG
substance,measurement,setting,value
"FGFR4 prey (human fibroblast growth factor receptor 4 ectodomain, pentameric 5xNanoLuc-tagged prey) (from UniProt P22455 22-369)","inhibition of NF54 sporozoite invasion of primary human hepatocytes (ISI assay) by LD1 mAb, up to 25 µg/mL",[1],20%
same,"inhibition of NF54 sporozoite invasion of primary human hepatocytes (ISI assay) by anti-FGFR4 rabbit pAbs, up to 2 mg/mL",[1],20%
FGFR4-CD4-Bio-His (purified monomeric FGFR4 ectodomain) (from UniProt P22455 22-369) (receptor),Kd,[2],46 µM and 40 µM
same,t1/2,[2],< 1 s and 0.4 s
FGFR4-CD4-Bio-His (purified monomeric human FGFR4 ectodomain) (from UniProt P22455 22-369) (receptor),Kd,[3],47 µM and 14 µM and 31 µM
same,kon,[3],16000 M⁻¹ s⁻¹ and 44000 M⁻¹ s⁻¹ and 30000 M⁻¹ s⁻¹
Juno (from UniProt Q9EQF4),Kd,[4],12 µM
Pf34-CD4-Bio-His (purified monomeric Pf34) (natural protein),Kd,[5],2.9 µM
same,koff,[5],0.0015 s⁻¹
same,kon,[5],520 M⁻¹ s⁻¹
